{"source": "patent US10064939B2", "about": "“Combination therapy using c-Met inhibitor and IGF-1R inhibitor for c-Met inhibitor resistant cancers” (Samsung Electronics Co., Ltd., priority 2014, dated 2018)", "key": {"[1]": {"test_system": "MKN45 re#24 gastric cancer cells", "assay": "Cell proliferation, CellTiter Glo assay, anti-c-Met antibody resistance induced cell line MKN45 re#24", "assay_type": "cell-based", "conditions": "72 hours; for cell proliferation inhibition effect: single treatment: L3-1Y/IgG2 (2 μg/ml) only or linsitinib (10 uM) only, FIG. 8", "method": "(§1) In particular, in order to obtain anti-c-Met antibody resistant MKN45 gastric cancer cells, MKN45 gastric cancer cells were administered with L3-1Y/IgG2 for at least 3 months by increasing the administration concentration. The amount of L3-1Y/IgG2 administered was increased from 1 μg/ml to 10 μg/ml, until resistance to L3-1Y/IgG2 is induced. The obtained L3-1Y/IgG2 resistant clones were named as MKN45re#1 and MKN45re#24, respectively.\n(§2) In order to confirm the acquisition of resistance to L3-1Y/IgG2, the prepared L3-1Y/IgG2 resistant clones (MKN45 re#1 and MKN45 re#24) and MKN45 with no resistance were administered with various concentrations of L3-1Y/IgG2 (see FIG. 9). 72 hours after the antibody administration, the number of living cells was measured through CellTiter Glo assay (Promega, G7573).\n(§3) The prepared L3-1Y/IgG2 resistance induced cell lines MKN45re#1 and MKN45re#24 were co-administered with L3-1Y/IgG2 and an IGF-1R inhibitor, to examine changes in cell proliferation of the L3-1Y/IgG2 resistance induced cell lines. Each of the L3-1Y/IgG2 resistant MKN45re#1 and MKN45re#24 cell lines was seeded on a 96-well plate at the amount of 10000 cells/well (medium: RPMI (GIBCO); culture conditions: 5% CO2 and 37° C.), and on the next day, treated with L3-1Y/IgG2 (2 μg/ml) and linsitinib (10 uM) together. 72 hours after the co-treatment, the number of living cells was counted by CellTiter Glo assay (Promega, G7573). For comparison, the same experiments were conducted using a control group with no treatment of L3-1Y/IgG or linsitinib, a group treated with L3-1Y/IgG (2 μg/ml) only, and a group treated with linsitinib (10 uM) only."}, "[2]": {"test_system": "MKN45 re#1 gastric cancer cells", "assay": "Cell proliferation, CellTiter Glo assay, anti-c-Met antibody resistance induced cell line MKN45 re#1", "assay_type": "cell-based", "conditions": "72 hours; for cell proliferation inhibition effect: single treatment: L3-1Y/IgG2 (2 μg/ml) only or linsitinib (10 uM) only, FIG. 7", "method": "as §1, §2, §3"}, "c-Met": {"molecular_target": "c-Met (Homo sapiens, UniProt P08581)", "sequence (P08581 25-1390)": "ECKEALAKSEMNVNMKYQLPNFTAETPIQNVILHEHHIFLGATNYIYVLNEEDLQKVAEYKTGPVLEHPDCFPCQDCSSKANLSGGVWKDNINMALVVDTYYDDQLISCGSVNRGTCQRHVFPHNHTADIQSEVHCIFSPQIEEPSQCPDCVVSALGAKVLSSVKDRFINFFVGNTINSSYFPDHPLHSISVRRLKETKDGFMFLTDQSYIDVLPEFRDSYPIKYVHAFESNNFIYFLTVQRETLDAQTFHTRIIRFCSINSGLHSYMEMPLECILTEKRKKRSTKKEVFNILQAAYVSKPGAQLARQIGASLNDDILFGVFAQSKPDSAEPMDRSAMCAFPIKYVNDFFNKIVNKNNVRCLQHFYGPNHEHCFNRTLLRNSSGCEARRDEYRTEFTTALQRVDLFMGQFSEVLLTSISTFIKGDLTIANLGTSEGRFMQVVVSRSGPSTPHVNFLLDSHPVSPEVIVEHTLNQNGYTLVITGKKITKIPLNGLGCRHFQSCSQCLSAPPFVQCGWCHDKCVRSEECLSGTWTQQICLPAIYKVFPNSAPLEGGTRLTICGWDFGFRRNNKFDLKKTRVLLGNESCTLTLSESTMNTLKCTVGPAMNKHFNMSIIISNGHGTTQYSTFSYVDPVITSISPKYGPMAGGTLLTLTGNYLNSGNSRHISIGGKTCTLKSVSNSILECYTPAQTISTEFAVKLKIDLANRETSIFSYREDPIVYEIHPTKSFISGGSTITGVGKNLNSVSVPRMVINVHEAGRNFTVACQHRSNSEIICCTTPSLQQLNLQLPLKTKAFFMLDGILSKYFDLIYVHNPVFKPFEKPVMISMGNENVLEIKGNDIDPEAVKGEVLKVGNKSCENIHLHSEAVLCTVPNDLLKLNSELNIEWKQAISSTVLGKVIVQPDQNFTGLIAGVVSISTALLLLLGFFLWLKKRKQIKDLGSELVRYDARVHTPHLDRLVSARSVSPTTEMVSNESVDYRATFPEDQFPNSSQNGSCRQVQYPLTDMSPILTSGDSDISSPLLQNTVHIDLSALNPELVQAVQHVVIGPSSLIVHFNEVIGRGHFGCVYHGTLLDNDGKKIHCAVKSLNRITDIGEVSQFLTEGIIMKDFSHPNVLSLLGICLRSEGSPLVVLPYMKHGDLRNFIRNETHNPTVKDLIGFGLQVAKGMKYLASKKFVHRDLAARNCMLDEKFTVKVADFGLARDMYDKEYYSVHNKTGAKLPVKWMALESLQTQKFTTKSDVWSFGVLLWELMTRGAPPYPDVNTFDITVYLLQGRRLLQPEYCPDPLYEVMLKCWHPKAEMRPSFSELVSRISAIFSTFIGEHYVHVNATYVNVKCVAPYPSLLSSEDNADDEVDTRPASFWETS", "assay": "Specificity of expressed scFv to c-Met", "assay_type": "binding", "conditions": "after expression", "description": "For use in constructing an scFv of the huAbF46 antibody from the heavy and light chain variable regions of the huAbF46 antibody, a gene was designed to have the structure of “VH-linker-VL” for each of the heavy and the light chain variable region, with the linker including the amino acid sequence “[…]” (SEQ ID NO: 54). A polynucleotide sequence (SEQ ID NO: 55) encoding the designed scFv of huAbF46 was synthesized in Bioneer and an expression vector for the polynucleotide had the nucleotide sequence of SEQ ID NO: 56."}, "MKN45 cells": {"test_system": "MKN45 cells", "assay": "Cell proliferation, non-resistant MKN45 cells", "assay_type": "cell-based", "method": "as §2"}, "YCC-11 cell line": {"test_system": "YCC-11 cell line", "assay": "Anticancer effect of anti-c-Met antibody used alone, YCC-11", "assay_type": "cell-based"}, "SNU-668 cell line": {"test_system": "SNU-668 cell line", "assay": "Anticancer effect of anti-c-Met antibody used alone, SNU-668", "assay_type": "cell-based"}, "Hs746T cell line": {"test_system": "Hs746T cell line", "assay": "Anticancer effect of anti-c-Met antibody used alone, Hs746T", "assay_type": "cell-based"}, "SNU-5 cell line": {"test_system": "SNU-5 cell line", "assay": "Anticancer effect of anti-c-Met antibody used alone, SNU-5", "assay_type": "cell-based"}, "[3]": {"conditions": "various, increasing concentrations of L3-1Y/IgG2, FIG. 9"}}, "data": [{"molecule": "CC1(O)CC(c2nc(-c3ccc4ccc(-c5ccccc5)nc4c3)c3c(N)nccn23)C1", "note": "(stereo not drawn) [linsitinib, 3-[8-Amino-1-(2-phenyl-7-quinolyl)imidazo[1,5-a]pyrazin-3-yl]-1-methyl-cyclobutanol, reference compound]", "values": [{"measurement": "cell proliferation inhibition effect", "setting": "[1]", "value": "no cell proliferation inhibition effect"}, {"measurement": "cell proliferation inhibition effect", "setting": "[2]", "value": "no cell proliferation inhibition effect"}]}, {"molecule": "scFv of huAbF46: scFv of structure VH-linker-VL from heavy and light chain variable regions of huAbF46 (protein) scFv: EVQLVESGGGLVQPGGSLRLSCAASGFTFTDYYMSWVRQAPGKGLEWLGFIRNKANGYTTEYSASVKGRFTISRDNSKNTLYLQMNSLRAEDTAVYYCARDNWFAYWGQGTLVTVSSGLGGLGGGGSGGGGSGGSSGVGSDIQMTQSPSSLSASVGDRVTITCKSSQSLLASGNQNNYLAWHQQKPGKAPKMLIIWASTRVSGVPSRFSGSGSGTDFTLTISSLQPEDFATYYCQQSYSAPLTFGQGTKVEIKR", "values": [{"measurement": "specificity to c-Met", "setting": "c-Met", "value": "exhibit specificity to c-Met"}]}, {"molecule": "L3-1Y/IgG2: anti-c-Met antibody: huAbF46-H4-A1 variable regions, human IgG2 hinge and constant region, human kappa light chain with His36Tyr (antibody) heavy: EVQLVESGGGLVQPGGSLRLSCAASGFTFTDYYMSWVRQAPGKGLEWLGFIRNKANGYTTEYSASVKGRFTISRDNSKNTLYLQMNSLRAEDTAVYYCARDNWFAYWGQGTLVTVSSASTKGPSVFPLAPCSRSTSESTAALGCLVKDYFPEPVTVSWNSGALTSGVHTFPAVLQSSGLYSLSSVVTVPSSNFGTQTYTCNVDHKPSNTKVDKTVERKCCVECPPCPAPPVAGPSVFLFPPKPKDTLMISRTPEVTCVVVDVSHEDPEVQFNWYVDGVEVHNAKTKPREEQFNSTFRVVSVLTVVHQDWLNGKEYKCKVSNKGLPAPIEKTISKTKGQPREPQVYTLPPSREEMTKNQVSLTCLVKGFYPSDIAVEWESNGQPENNYKTTPPMLDSDGSFFLYSKLTVDKSRWQQGNVFSCSVMHEALHNHYTQKSLSLSPGK light: DIQMTQSPSSLSASVGDRVTITCKSSQSLLASGNQNNYLAWYQQKPGKAPKMLIIWASTRVSGVPSRFSGSGSGTDFTLTISSLQPEDFATYYCQQSYSRPYTFGQGTKVEIKRTVAAPSVFIFPPSDEQLKSGTASVVCLLNNFYPREAKVQWKVDNALQSGNSQESVTEQDSKDSTYSLSSTLTLSKADYEKHKVYACEVTHQGLSSPVTKSFNRGEC", "values": [{"measurement": "effect (cancer cell proliferation inhibition effect) when administered alone", "setting": "MKN45 cells", "value": "exhibits its effect"}, {"measurement": "anticancer effect when used alone", "setting": "YCC-11 cell line", "value": "does not exhibit anticancer effect"}, {"measurement": "cell proliferation inhibition effect", "setting": "[1]", "value": "no cell proliferation inhibition effect"}, {"measurement": "proliferation (number of living cells)", "setting": "[1]; [3]", "value": "not inhibited"}, {"measurement": "cell proliferation inhibition effect", "setting": "[2]", "value": "no cell proliferation inhibition effect"}, {"measurement": "proliferation (number of living cells)", "setting": "[2]; [3]", "value": "not inhibited"}, {"measurement": "anticancer effect when used alone", "setting": "SNU-668 cell line", "value": "does not exhibit anticancer effect"}, {"measurement": "anticancer effect when used alone", "setting": "Hs746T cell line", "value": "exhibits anticancer effect"}, {"measurement": "anticancer effect when used alone", "setting": "SNU-5 cell line", "value": "exhibits anticancer effect"}]}]}
